Test results published in patent US20070072210A1 (published 2007).

B1: FLAG-tagged BAAT1 (full length) (other)
chain: MDPECAQLLPALCAVLVDPGQPVADDTCLEKLLDWFKTVTEGESSVVLLQEHPCLVELLSHVLKVQDLSSGVLSFSLRLAGTFAAQENCFQYLQQGELLPGLFGEPGPLGRATWAVPTVRSGWIQGLRSLAQHPSALRFLADHGAVDTIFSLQGDSSLFVASAASQLLVHVLALSMRGGAEGQPCLPGGDWPACAQKIMDHVEESLCSAATPKVTQALNVLTTTFGRCQSPWTEALWVRLSPRVACLLERDPIPAAHSFVDLLLCVARSPVFSSSDGSLWETVARALSCLGPTHMGPLALGILKLEHCPQALRTQAFQVLLQPLACVLKATVQAPGPPGLLDGTADDATTVDTLLASKSSCAGLLCRTLAHLEELQPLPQRPSPWPQASLLGATVTVLRLCDGSAAPASSVGGHLCGTLAGCVRVQRAALDFLGTLSQGTGPQELVTQALAVLLECLESPGSSPTVLKKAFQATLRWLLSSPKTPGCSDLGPLIPQFLRELFPVLQKRLCHPCWEVRDSALEFLTQLSRHWGGQADFRCALLASEVPQLALQLLQDPESYVRASAVTAMGQLSSQGLHAPTSPEHAEARQSLFLELLHILSVDSEGFPRRAVMQVFTEWLRDGHADAAQDTEQFVATVLQAASRDLDWEVRAQGLELALVFLGQTLGPPRTHCPYAVALPEVAPAQPLTEALRALCHVGLFDFAFCALFDCDRPVAQKSCDLLLFLRDKIASYSSLREARGSPNTASAEATLPRWRAGEQAQPPGDQEPEAVLAMLRSLDLEGLRSTLAESSDHVEKSPQSLLQDMLATGGFLQGDEADCY
notes: Transiently expressed in 293T cells; the clone used was IMAGE BC015632; also called FLAG-BAAT1; not shown: FLAG tag

How the values were obtained:
[1] = target: T1, BRCA1 (endogenous, from human cell lysates) (human, UniProt P38398 1-1863); assay: immunoprecipitation with anti BRCA1 21A1 from 293T cells, anti FLAG blot
T1 construct: Endogenous cellular protein immunoprecipitated with anti BRCA1 antibodies C-20 or 21A1; also called breast cancer susceptibility gene 1 protein; endogenous BRCA1
Text: (§1) GST-BRCA1 fragments were precipitated with GSH beads and samples were immunoblotted with anti FLAG antibody. […] After immunoprecipitation with anti BRCA1 21A1 antibody, samples were immunoblotted with FLAG antibody. […] NS: non-specific signals. […] Two different anti BRCA1 antibodies (C-20 and 21A1) and anti ATM antibodies (N-17 and 2C1) were used for the assay.

[2] = target: T1, BRCA1 (endogenous, from human cell …); assay: co-immunoprecipitation of endogenous proteins from HeLa cells
Protocol: as §1
(§2) Co-Immunoprecipitation and GST Pull-Down Assays: HeLa or NMEs cells were lysed for 30 min in 500 ml of lysis buffer (50 mM Tris-HCl pH 7.5, 100 mM NaCl, 0.5% NP-40, 0.5% DOC, 5 mM EDTA, and protease inhibitors: 100 mg/ml PMSF, 2 mg/ml Aprotinin, 2 mg/ml Leupeptin). One milligram of total cell lysates was incubated with 10 mg/ml of ethidium bromide and the primary antibody for 3 h followed by incubation with either Protein A or Protein G agarose beads overnight at 4° C. The immunocomplexes were separated on SDS-PAGE gels and visualized by Western blotting. […] After pulldown with GSH beads, samples were separated in SDS-polyacrylamide gel and visualized by Western blotting.

[3] = target: B1; assay: GST pulldown from co-transfected 293T cells, anti FLAG blot
Protocol: as §1, §2

Binder: B1
- binding result [1]: binds

B2: BAAT1 (endogenous, from human cell lysates) (other)
chain: MDPECAQLLPALCAVLVDPGQPVADDTCLEKLLDWFKTVTEGESSVVLLQEHPCLVELLSHVLKVQDLSSGVLSFSLRLAGTFAAQENCFQYLQQGELLPGLFGEPGPLGRATWAVPTVRSGWIQGLRSLAQHPSALRFLADHGAVDTIFSLQGDSSLFVASAASQLLVHVLALSMRGGAEGQPCLPGGDWPACAQKIMDHVEESLCSAATPKVTQALNVLTTTFGRCQSPWTEALWVRLSPRVACLLERDPIPAAHSFVDLLLCVARSPVFSSSDGSLWETVARALSCLGPTHMGPLALGILKLEHCPQALRTQAFQVLLQPLACVLKATVQAPGPPGLLDGTADDATTVDTLLASKSSCAGLLCRTLAHLEELQPLPQRPSPWPQASLLGATVTVLRLCDGSAAPASSVGGHLCGTLAGCVRVQRAALDFLGTLSQGTGPQELVTQALAVLLECLESPGSSPTVLKKAFQATLRWLLSSPKTPGCSDLGPLIPQFLRELFPVLQKRLCHPCWEVRDSALEFLTQLSRHWGGQADFRCALLASEVPQLALQLLQDPESYVRASAVTAMGQLSSQGLHAPTSPEHAEARQSLFLELLHILSVDSEGFPRRAVMQVFTEWLRDGHADAAQDTEQFVATVLQAASRDLDWEVRAQGLELALVFLGQTLGPPRTHCPYAVALPEVAPAQPLTEALRALCHVGLFDFAFCALFDCDRPVAQKSCDLLLFLRDKIASYSSLREARGSPNTASAEATLPRWRAGEQAQPPGDQEPEAVLAMLRSLDLEGLRSTLAESSDHVEKSPQSLLQDMLATGGFLQGDEADCY
notes: Endogenous cellular protein detected with the anti-BAAT1 antibody; also called endogenous BAAT1; hBAAT1
- binding result [2]: binds

B3: FLAG-tagged C-terminal BAAT1 (amino acids 176-821) (other)
chain: MRGGAEGQPCLPGGDWPACAQKIMDHVEESLCSAATPKVTQALNVLTTTFGRCQSPWTEALWVRLSPRVACLLERDPIPAAHSFVDLLLCVARSPVFSSSDGSLWETVARALSCLGPTHMGPLALGILKLEHCPQALRTQAFQVLLQPLACVLKATVQAPGPPGLLDGTADDATTVDTLLASKSSCAGLLCRTLAHLEELQPLPQRPSPWPQASLLGATVTVLRLCDGSAAPASSVGGHLCGTLAGCVRVQRAALDFLGTLSQGTGPQELVTQALAVLLECLESPGSSPTVLKKAFQATLRWLLSSPKTPGCSDLGPLIPQFLRELFPVLQKRLCHPCWEVRDSALEFLTQLSRHWGGQADFRCALLASEVPQLALQLLQDPESYVRASAVTAMGQLSSQGLHAPTSPEHAEARQSLFLELLHILSVDSEGFPRRAVMQVFTEWLRDGHADAAQDTEQFVATVLQAASRDLDWEVRAQGLELALVFLGQTLGPPRTHCPYAVALPEVAPAQPLTEALRALCHVGLFDFAFCALFDCDRPVAQKSCDLLLFLRDKIASYSSLREARGSPNTASAEATLPRWRAGEQAQPPGDQEPEAVLAMLRSLDLEGLRSTLAESSDHVEKSPQSLLQDMLATGGFLQGDEADCY
notes: Expressed in 293T cells; co-precipitated with BRCA1 by the anti BRCA1 21A1 antibody and blotted with anti FLAG; not shown: FLAG tag
- binding result [1]: binds

B4: GST-tagged BRCA1 BRCT domains, breast cancer-associated mutant Met1775Arg (other, UniProt P38398 1560-1863, looked up)
chain: GTPYLESGISLFSDDPESDPSEDRAPESARVGNIPSSTSALKVPQLKVAESAQSPAAAHTTDTAGYNAMEESVSREKPELTASTERVNKRMSMVVSGLTPEEFMLVYKFARKHHITLTNLITEETTHVVMKTDAEFVCERTLKYFLGIAGGKWVVSYFWVTQSIKERKMLNEHDFEVRGDVVNGRNHQGPKRARESQDRKIFRGLEICCYGPFTNRPTDQLEWMVQLCGASVVKELSSFTLGTGVHPIVVVQPDAWTEDNGFHAIGQMCEAPVVTREWVLDSVALYQCQELDTYLIPQIPHSHY
notes: domain: BRCT domains; also called M1775R; not shown: GST tag
- binding result [3]: no binding
